{"source": "the nanobody polyreactivity screen of Harvey et al. (2022)"}
{"experiment": "yeast display, Sf9 membrane polyspecificity reagent, FACS + sequencing; frameworks hold sequencing errors", "how_it_was_run": "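Genes from sorted yeast were amplified by colony PCR, read by MiSeq 2 × 250 sequencing and filtered on CDR length. These cells carried a synthetic nanobody library in Saccharomyces cerevisiae BJ5465 and were sorted by FACS into low and high (top ~1%) gates on anti-HA and streptavidin fluorescence. Polyreactivity is labelled according to the gate of origin.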"}
{"sequence": "QVQLVESGGGLVQAGGSLRLSSAASGFTFNANAMGWYRQAPGKERELVAVITRSGGRTYYADSVKGRFTISRDNAKNTVYLQMNSLKPEDTAVYYCAADIGYTYEYYYWGQGTQVTVSS", "polyreactivity (PSR sort gate)": "high polyreactivity"}
{"sequence": "QVQLVESGGGLVQAGGSLRLSSAASGFTFPWYAMGWYSQAPGKEREVVAVISSSGGSTYYADSVKGRFTISRDNAKNTVYLQMNSLKPEDTAVYYCARAYGGRGYDIRYDYWGKGTQVTVSS", "polyreactivity (PSR sort gate)": "high polyreactivity"}
{"sequence": "QVQLVESGGGLVQAGGSLRLSSAASGFTFSHYAMGWYRQAPGKERELVAAITWSGGSTYYADSVKGRFTISRDNAKNTVYLQINSLKPEDTAVYYCAAESYLDGGEYWGQGTQVTVSS", "polyreactivity (PSR sort gate)": "high polyreactivity"}
{"sequence": "QVQLVESGGGLVQAGGSLRLSSAASGFTFVINDMGWYRQAPGKEMELVADITSGGDTYYADSVKGRFTISRDNAKNTVYLQMNSLKPEDTAVYYCAADIYPDWIYLLYGYWGQGTQGTVSS", "polyreactivity (PSR sort gate)": "low polyreactivity"}
{"sequence": "QVQLVESGGGLVQAGGSLRLSSAASGFTFVNYAMGWYRQAPGKERELVAAITRGGSTYYADSVKGRFTISRDNAKNTVYLNMNSLIPEDTAVYYCSARYFYLFRPTEYYYWGQGTQVTVSS", "polyreactivity (PSR sort gate)": "high polyreactivity"}
{"sequence": "QVQLVESGGGLVQAGGSLRLSSAASGFTFVRYTMGWYRQAPGKERELVAAINASGDRTYYADSVKGRFTISRDNAKNTVYLQMNCLIPEDTAVFYCAAGSSLYYSHMGYWGQGTQVTVSS", "polyreactivity (PSR sort gate)": "high polyreactivity"}
{"sequence": "QVQLVESGGGLVQAGGSLRLSSAASGFTFVRYTMGWYRQAPGKERELVAVIRRGGSTYYADSVKGRFTISRDNAKNTVYLQMNSLKPEDTAVYYCNALSALAVEDGYWGLGTQVTVSS", "polyreactivity (PSR sort gate)": "low polyreactivity"}
{"sequence": "QVQLVESGGGLVQAGGSLRLSSAASGFTLGYYAMGWYRQAPGKEREMVAAIRSSGTRTYYADSVKGRFTISRDNAKYTVYLLMNSLKPEDTAVYYCAARTPSYEMDYWGQGTQVTVSS", "polyreactivity (PSR sort gate)": "high polyreactivity"}
{"sequence": "QVQLVESGGGLVQAGGSLRLSSAASGFTLSRYAMGWYRQAPGKERELVASITSGGSTNYADSVKGRFTISRDNAKNTVYLQMNSLKPEDTAVYYCAARYPYRSYKLSHSYARPYGYWGQGTQVTVSS", "polyreactivity (PSR sort gate)": "high polyreactivity"}
{"sequence": "QVQLVESGGGLVQAGGSLRLSSAASGFTYYFYAMGWYRQAPGKERELVAGISTSGTSTYYADSVKGRFTISRDNAKNTVYFQMNRLKPEDTAVSYCAKRGDAIVPTSSKGNYWGQGTQVTVSS", "polyreactivity (PSR sort gate)": "low polyreactivity"}
{"sequence": "QVQLVESGGGLVQAGGSLRLSSAASGIFSYYAIGWYRQAPGKERELVAAISSSGGSTYYADSVKGRFTISRDNAKNTVYLQMNSLKPEDTAVYYCAVSGGTSRRYYYWGLGTQVTVSS", "polyreactivity (PSR sort gate)": "high polyreactivity"}
{"sequence": "QVQLVESGGGLVQAGGSLRLSSAASGIFWNYAMGWYRQAPGKERELVAAISGSGGSTYYADSVKGRFTISRDNAKNTVYLQINSLKPEDTAVYYCAAEPGNHIWIYDYWGQGTQVTVSS", "polyreactivity (PSR sort gate)": "low polyreactivity"}
{"sequence": "QVQLVESGGGLVQAGGSLRLSSAASGIIFRDNAMGWYRQAPGKERELVAAIDSSGGTTYADSVKGRFTISRDNAKNTVYLQMNSLKPEDTAVYYCATEVYWTVSYYGYDYYGGNYYYWGQGTQVTVSS", "polyreactivity (PSR sort gate)": "low polyreactivity"}
{"sequence": "QVQLVESGGGLVQAGGSLRLSSAASGITFRRYAMVWYRQAPGKERELVASITRGGSTSYADSVKGRFTISRDNAKNTVYLQMNSLKPEDTAVYYCNTRFGYQFDYYYWGQGTQVTVSS", "polyreactivity (PSR sort gate)": "high polyreactivity"}
{"sequence": "QVQLVESGGGLVQAGGSLRLSSAASGITFYINAMGWYRPAPGKERELVAALSWPRGSTYYADSVKGRFTISRDNAKNTVYLQMNSLKPEDTAVYYCAGVAYFELSGGGLEYGYDYWGQGTQVSVSS", "polyreactivity (PSR sort gate)": "high polyreactivity"}
{"sequence": "QVQLVESGGGLVQAGGSLRLSSAASGITFYWYAMGWYRQAPGKERELVAASTRSVGSTYYADSVNGRFTISRDNAKNTVYLQMNSLKPEDTAVYYCAADFYYYGFDYWGQGTQVTVSS", "polyreactivity (PSR sort gate)": "low polyreactivity"}
{"sequence": "QVQLVESGGGLVQAGGSLRLSSAASGITLKRYALGWYRHAPGKERELVAAITGRGGGTNYADSVKGRFTISRDNAKNTVYLQMNSLKPEDTAVYYCAARYLQGRYDYWGQGTQVTVSS", "polyreactivity (PSR sort gate)": "high polyreactivity"}
{"sequence": "QVQLVESGGGLVQAGGSLRLSSAASGLTFNYYAMGWYRQAPGKERELVAAISKSGGRTYYADSVKGRFTISRDNAKNTVYLQMNSLKPEDTAVYYCNDVVPRSRYFSWTYDYWGQGTQVTVSS", "polyreactivity (PSR sort gate)": "high polyreactivity"}
{"sequence": "QVQLVESGGGLVQAGGSLRLSSAASGLTYSVYAMGWYRQAPGKERELVAAISGSGGSTYYADSVKGRFTISRDNAKNTVYLQMNSLKPEDTAVYYCAARYDVHYDGMDYWGLGTQVTVSS", "polyreactivity (PSR sort gate)": "low polyreactivity"}
{"sequence": "QVQLVESGGGLVQAGGSLRLSSAASGRIFDTNAMGGYRQAPGKERELVAAISKSGGSTYYADSVKGRFTISRDNAKNTVYLQMNSLKPEDTAVYFCAAKYTSGRVLFEHGYWGQGSQVTVSS", "polyreactivity (PSR sort gate)": "low polyreactivity"}
{"sequence": "QVQLVESGGGLVQAGGSLRLSSAASGRIFLRNALGWYRQAPGKERESVAAITRGGSTNYADSVKGRFTISRDNAKNTVYLQMNSLKPEDTAVYYCNARYPVVRYDYWGQGTQVTVSS", "polyreactivity (PSR sort gate)": "high polyreactivity"}
{"sequence": "QVQLVESGGGLVQAGGSLRLSSAASGRIFQGNSMGWYRQAPGKERELVAAITTSGGSTYYADSVKGRFTISRDNAKNTVYLQMNSLKPEDTAVYYCNVDPRKRSYDYWGQGPQVTVSS", "polyreactivity (PSR sort gate)": "high polyreactivity"}
{"sequence": "QVQLVESGGGLVQAGGSLRLSSAASGRIFSSYAMGWYRQAPGKERELVAAITSGGSTYYADSVKGRFTISRDNAKNTVYLQMNSLKPEDTAVYYCAAVYVQPPATAQHYYYWGQGTQVTVSS", "polyreactivity (PSR sort gate)": "high polyreactivity"}
{"sequence": "QVQLVESGGGLVQAGGSLRLSSAASGRIFVAYAMGWYRQAPAKERELVAAITWSGTSTYADSVKGRFTISRDNAKNTVYLQMNSLKPEDTAVYYCAKKAIVSDQWDKYDYWGQGTQVTVSS", "polyreactivity (PSR sort gate)": "low polyreactivity"}
{"sequence": "QVQLVESGGGLVQAGGSLRLSSAASGRIIRAYAMGWYRQAPGKERELVADISGGSNTNYADSVKGRFTISRDNAKNTVYLQMNSLKPEDTAVYYCAADAGYWESLWYPYGFYWGQGTQVTVSS", "polyreactivity (PSR sort gate)": "low polyreactivity"}
{"sequence": "QVQLVESGGGLVQAGGSLRLSSAASGRTFAVYAMGWYRQAPGKERELVAAISSGGSTYYADSVKGRFTISRDNAKNTVYLPMNSLKPEDTAVYYCTARWGYRRGDWGQGTQVTVSS", "polyreactivity (PSR sort gate)": "high polyreactivity"}
{"sequence": "QVQLVESGGGLVQAGGSLRLSSAASGRTFFINAMGWYRQAPGKERDLVATITSGGITNYADSVKGRFTISRDNAKNTDYLQMNSLKPEDTAVYYCAVRWYGKYSGVRYYYWGQGTQVTVSS", "polyreactivity (PSR sort gate)": "high polyreactivity"}
{"sequence": "QVQLVESGGGLVQAGGSLRLSSAASGRTFFPNAMGWYRQAPGKERELVAAISSGGGGTYYADSVKGRFTISRDKAKNTVYLQMNRLKPEDTAVYYCAGRNSKVEEEGNYWGQGTQVTVSS", "polyreactivity (PSR sort gate)": "low polyreactivity"}
{"sequence": "QVQLVESGGGLVQAGGSLRLSSAASGRTFFYYAMGWYRQAPGKERELVAVISGSGARTYYADSVKGRFTISRDNAKYTVYLQMNSLKPEDTAVYYWIKVFARSRSSRYQAYDYWGQGTQVTVSS", "polyreactivity (PSR sort gate)": "high polyreactivity"}
{"sequence": "QVQLVESGGGLVQAGGSLRLSSAASGRTFPSYAMGWYRQAPGKERELVAAISSSGGSTYYADSVKGRFTISRDNAKNTFYLQMNSLKPEDTAVYYCNKQFPYAKYYIMGYWGQGTQVTVSS", "polyreactivity (PSR sort gate)": "high polyreactivity"}
{"sequence": "QVQLVESGGGLVQAGGSLRLSSAASGRTFTVNAMGSYRQAPGKERELVAAISQRGASTYYADSVKGRFTISRDNAKNTVYLQMNSLKPVDTAVYYCAAHLRYKYDYWGQGTQVTVSS", "polyreactivity (PSR sort gate)": "high polyreactivity"}
{"sequence": "QVQLVESGGGLVQAGGSLRLSSAASGRTFTYYAMGWYRQAPGTERELVAAISSGGRTDYADSVKGRFTISRDNAKNTVYLQMNSLKPEDTAVYYCNARPKVYYREYDYWGQGNQVTVSS", "polyreactivity (PSR sort gate)": "high polyreactivity"}
{"sequence": "QVQLVESGGGLVQAGGSLRLSSAASGRTFYSNAMGWYRQAPGKEREFVAAINWSGTSTYADSVKGRFTISRDNAKNTVYLQMNSLKPEDTAVYYCAKTYRTLVRYWGQPFGYWGQGTQVTVSS", "polyreactivity (PSR sort gate)": "high polyreactivity"}
{"sequence": "QVQLVESGGGLVQAGGSLRLSSAASGRTLARNAMGWYRQAPGKERELVAGITSGGSTDYADSVKGRFTISRDNAKNTVYLQMNSLKPEDTAVYYCNRDAGPGGDYWGQGTQGTVSS", "polyreactivity (PSR sort gate)": "low polyreactivity"}
{"sequence": "QVQLVESGGGLVQAGGSLRLSSAASGSIFAWYGMGWYRQAPGKERELVAAISTAGSTNYADSVKGRFTISRDNAKNTVYLQMNSLKPEDTAVYYCAKKSSWYYPERFDYWGQGTQVTVSS", "polyreactivity (PSR sort gate)": "low polyreactivity"}
{"sequence": "QVQLVESGGGLVQAGGSLRLSSAASGSIFDYYAMGWSRQAPGKERELVAAISGSGGSTYYADSVKGRFTISRDNAKNTVYLQMNSLKPEDTAVYYCNVYYRRRYDYWGQGTQVTVSS", "polyreactivity (PSR sort gate)": "high polyreactivity"}
{"sequence": "QVQLVESGGGLVQAGGSLRLSSAASGSIFERYTMAWYRLAPGKERELVAVISTGGGSTNYADSVKGRFTFSRDNAKNTVYLQMNSLKPADTAVYYCAASYGYYRYGYWGQGTQVNVSS", "polyreactivity (PSR sort gate)": "high polyreactivity"}
{"sequence": "QVQLVESGGGLVQAGGSLRLSSAASGSIFGSNAMGWYRQAPGKERELVATITTSGGITYYADSVKGRFTISRDTAKNTVYLQMNSLKPEDTAVYYCAAAEGGGLVTYDYWGQGTQVTVSS", "polyreactivity (PSR sort gate)": "low polyreactivity"}
{"sequence": "QVQLVESGGGLVQAGGSLRLSSAASGSIFLGNAMGWYRQAPGKERELVAAISSITGRTYYADSVKGRFTISRDNAKNTVYLQMNSLKPEDTAVYYCAATSLIYGYRTYDYWGQGTQVTVSS", "polyreactivity (PSR sort gate)": "high polyreactivity"}
{"sequence": "QVQLVESGGGLVQAGGSLRLSSAASGSIFLVNAMGWYRQAPGKERELVAAINSGGSTYYADSVKGRFTISRDNAKNTVYLQMNSLKPEDTAVYYCAADFWLKVWQDTDYDFDYWGQGTQVTVSS", "polyreactivity (PSR sort gate)": "low polyreactivity"}
{"sequence": "QVQLVESGGGLVQAGGSLRLSSAASGSIFRIYAMGWYRQAPGKERELVAAMSSGGSTYYADSVKGRFTISRDNAKNTVYLQMNSLKPEDTAVYYCAAYPEYVSGAWYDYWGQGTQVTLSS", "polyreactivity (PSR sort gate)": "low polyreactivity"}
